Here are results for three molecules from PMC9715718 (Nature Communications, 2022).

Data set [1] deals with the molecule itself. Briefly: SEC-MALS; Superdex 200 Increase column in SEC buffer, 40-150 µg of protein applied. On the technique in general: SEC sorts molecules by how far they enter the pores of the column.
The target in another data set is T1, PqsE-E187R (Pseudomonas aeruginosa, UniProt P20581, E187R).
T1 construct: source: E. coli BL21 CodonPlus (DE3), purified; not shown: His6, N-terminal, cleaved
Nature of the data set: MST; PqsE diluted 1:1 from 10 µM, RhlR-ATTO488 at 20 nM; 50 mM Tris pH 8.0, 300 mM NaCl, 5% glycerol, 50 µM mBTL, 0.05% Tween; 25 °C. As to conditions: both partners purified.

B1: RhlR purified in the presence of mBTL (natural protein)
chain: MRNDGGFLLWWDGLRSEMQPIHDSQGVFAVLEKEVRRLGFDYYAYGVRHTIPFTRPKTEVHGTYPKAWLERYQMQNYGAVDPAILNGLRSSEMVVWSDSLFDQSRMLWNEARDWGLCVGATLPIRAPNNLLSVLSVARDQQNISSFEREEIRLRLRCMIELLTQKLTDLEHPMLMSNPVCLSHREREILQWTADGKSSGEIAIILSISESTVNFHHKNIQKKFDAPNKTLAAAYAAALGLI
notes: RhlR, LuxR-type transcription factor of P. aeruginosa PA14/PAO1, 241 residues; also called RhlR:mBTL; non-tagged RhlR; source: E. coli BL21 CodonPlus (DE3), purified in the presence of mBTL
On to B1, for which the “stoichiometry N” value in data set [1] worked out at 2.

B2: RhlR-ATTO488 (natural protein)
chain: MRNDGGFLLWWDGLRSEMQPIHDSQGVFAVLEKEVRRLGFDYYAYGVRHTIPFTRPKTEVHGTYPKAWLERYQMQNYGAVDPAILNGLRSSEMVVWSDSLFDQSRMLWNEARDWGLCVGATLPIRAPNNLLSVLSVARDQQNISSFEREEIRLRLRCMIELLTQKLTDLEHPMLMSNPVCLSHREREILQWTADGKSSGEIAIILSISESTVNFHHKNIQKKFDAPNKTLAAAYAAALGLI
modifications: conjugated with ATTO488-maleimid (site not stated)
notes: RhlR, LuxR-type transcription factor of P. aeruginosa PA14/PAO1, 241 residues; m4 after labelling; 'non-tagged'; holds mBTL
The molecule B2 yielded a Kd in the data set with PqsE-E187R of 13.8 ± 3.9 µM.

B3: PqsE (purified, affinity tag removed) (enzyme)
chain: MLRLSAPGQLDDDLCLLGDVQVPVFLLRLGEASWALVEGGISRDAELVWADLCRWVADPSQVHYWLITHKHYDHCGLLPYLCPRLPNVQVLASERTCQAWKSESAVRVVERLNRQLLRAEQRLPEACAWDALPVRAVADGEWLELGPRHRLQVIEAHGHSDDHVVFYDVRRRRLFCGDALGEFDEAEGVWRPLVFDDMEAYLESLERLQRLPTLLQLIPGHGGLLRGRLAADGAESAYTECLRLCRRLLWRQSMGESLDELSEELHRAWGGQSVDFLPGELHLGSMRRMLEILSRQALPLD
notes: not shown: His6, N-terminal, cleaved
For the molecule B3, the “stoichiometry N” value in data set [1] amounted to 2.

The term stoichiometry N denotes the number of molecules, sites or subunits per partner or assembly. The term Kd denotes the concentration at which binding is half-saturated. The low end stands for tighter binding, the high end for weaker binding.
